Measured values as given in IntAct's records for PubMed 29892012.

B1: Melanoma-associated antigen 8 (Homo sapiens), P43361 (parent)
chain: MLLGQKSQRYKAEEGLQAQGEAPGLMDVQIPTAEEQKAASSSSTLIMGTLEEVTDSGSPSPPQSPEGASSSLTVTDSTLWSQSDEGSSSNEEEGPSTSPDPAHLESLFREALDEKVAELVRFLLRKYQIKEPVTKAEMLESVIKNYKNHFPDIFSKASECMQVIFGIDVKEVDPAGHSYILVTCLGLSYDGLLGDDQSTPKTGLLIIVLGMILMEGSRAPEEAIWEALSVMGLYDGREHSVYWKLRKLLTQEWVQENYLEYRQAPGSDPVRYEFLWGPRALAETSYVKVLEHVVRVNARVRISYPSLHEEALGEEKGV
partner: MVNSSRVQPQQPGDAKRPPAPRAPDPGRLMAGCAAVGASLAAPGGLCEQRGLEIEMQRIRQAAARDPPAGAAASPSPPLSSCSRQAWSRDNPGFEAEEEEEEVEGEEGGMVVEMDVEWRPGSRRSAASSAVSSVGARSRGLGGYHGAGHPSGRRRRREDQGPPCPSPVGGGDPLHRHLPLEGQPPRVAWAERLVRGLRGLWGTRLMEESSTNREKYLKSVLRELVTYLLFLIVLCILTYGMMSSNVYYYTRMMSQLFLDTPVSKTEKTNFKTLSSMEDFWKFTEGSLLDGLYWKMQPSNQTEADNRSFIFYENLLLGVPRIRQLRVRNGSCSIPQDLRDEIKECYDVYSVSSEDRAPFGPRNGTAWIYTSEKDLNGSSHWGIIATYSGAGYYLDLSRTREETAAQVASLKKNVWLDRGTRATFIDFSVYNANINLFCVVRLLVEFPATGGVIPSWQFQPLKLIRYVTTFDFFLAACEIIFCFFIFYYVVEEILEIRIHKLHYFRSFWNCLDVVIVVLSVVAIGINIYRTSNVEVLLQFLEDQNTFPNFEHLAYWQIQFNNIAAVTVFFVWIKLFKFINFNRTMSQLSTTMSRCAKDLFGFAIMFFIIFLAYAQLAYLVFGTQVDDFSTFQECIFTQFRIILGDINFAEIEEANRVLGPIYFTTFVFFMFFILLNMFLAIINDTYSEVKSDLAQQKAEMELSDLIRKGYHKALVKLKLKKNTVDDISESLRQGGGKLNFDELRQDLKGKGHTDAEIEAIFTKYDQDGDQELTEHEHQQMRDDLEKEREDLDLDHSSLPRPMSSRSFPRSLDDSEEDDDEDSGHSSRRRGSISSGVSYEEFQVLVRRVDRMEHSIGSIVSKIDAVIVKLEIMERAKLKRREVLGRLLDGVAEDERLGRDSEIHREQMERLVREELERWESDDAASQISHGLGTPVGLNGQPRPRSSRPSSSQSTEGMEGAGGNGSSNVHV
B2: U3 small nucleolar RNA-associated protein 25 homolog (Homo sapiens), Q68CQ4 (parent)
chain: MGKRGSRSQSQLLNTLTKKQKKHLRDFGEEHPFYDRVSRKEAKPQICQLSESSDSSDSESDSESEPQQVSGYHRLLATLKNVSEEEEEDEEEEEEEDSIVDDAEMNDEDGGSDVSVEEEMAAESTESPENVALSADPEGKEDGEEPPGTSQTSPEEFTDAKHESLFSLETNFLEEESGDNSSLKASQDPFLQHVNKELKEKAIQAVATNPKTTHELKWPILGQLFFSSKFQKLETFKPPKDIDLKSLHLQKPLESTWTKTNSQFLSGPQKSSSPFTPLQKELFLIMNSYRDLFYPERTALKNGEEIRHVYCLHVINHILKANAQVLGNNSRRRSQKFGVGDDDDFRDQGLTRPKVLIVVPFREAALRVVQLFISLLEGDSKKKIIVSNKKRFQGEYGSDPEERPPNLKRPEDYEAVFVGNIDDHFRIGVAILQRSIRLYAPFYSSDILIASPLGLRTIIGGEGEKKRDFDFLSSIELLIIDQADIYLMQNWEHVLHLMNHMNLLPLDSHGVDFSRVRMWSLNNWSKYYRQTLLFGALQDAQINSVFNKYCVNMQGQVAVRNVPMTGSISHVLVQLPHVFQRMEAENLASVIDARFNFFVNKILPQYRDAVMSHTLIYIPSYFDFVRLRNYFKKEELNFTHICEYTQKSGVSRARHFFLQGEKQFLLFTERFHFYKRYTIKGIRNLIFYELPTYPHFYSEICNMLRATNRGEEATWTCTVLYSKYDAQRLAAVVGVERAAQMLQSNKNVHLFITGEK
partner: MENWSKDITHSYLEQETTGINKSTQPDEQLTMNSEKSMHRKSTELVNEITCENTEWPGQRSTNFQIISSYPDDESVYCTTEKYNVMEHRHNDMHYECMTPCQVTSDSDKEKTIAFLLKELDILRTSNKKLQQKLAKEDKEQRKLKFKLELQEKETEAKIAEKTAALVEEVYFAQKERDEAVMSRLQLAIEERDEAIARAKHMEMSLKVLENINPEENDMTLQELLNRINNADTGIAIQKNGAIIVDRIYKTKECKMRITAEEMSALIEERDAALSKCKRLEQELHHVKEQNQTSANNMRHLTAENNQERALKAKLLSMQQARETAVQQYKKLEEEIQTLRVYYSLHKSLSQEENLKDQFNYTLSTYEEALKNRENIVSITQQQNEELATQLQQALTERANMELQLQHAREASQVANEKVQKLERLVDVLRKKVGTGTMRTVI
B3: E3 ubiquitin-protein ligase LNX (Homo sapiens), Q8TBB1 (parent)
chain: MNQPESANDPEPLCAVCGQAHSLEENHFYSYPEEVDDDLICHICLQALLDPLDTPCGHTYCTLCLTNFLVEKDFCPMDRKPLVLQHCKKSSILVNKLLNKLLVTCPFREHCTQVLQRCDLEHHFQTSCKGASHYGLTKDRKRRSQDGCPDGCASLTATAPSPEVSAAATISLMTDEPGLDNPAYVSSAEDGQPAISPVDSGRSNRTRARPFERSTIRSRSFKKINRALSVLRRTKSGSAVANHADQGRENSENTTAPEVFPRLYHLIPDGEITSIKINRVDPSESLSIRLVGGSETPLVHIIIQHIYRDGVIARDGRLLPGDIILKVNGMDISNVPHNYAVRLLRQPCQVLWLTVMREQKFRSRNNGQAPDAYRPRDDSFHVILNKSSPEEQLGIKLVRKVDEPGVFIFNVLDGGVAYRHGQLEENDRVLAINGHDLRYGSPESAAHLIQASERRVHLVVSRQVRQRSPDIFQEAGWNSNGSWSPGPGERSNTPKPLHPTITCHEKVVNIQKDPGESLGMTVAGGASHREWDLPIYVISVEPGGVISRDGRIKTGDILLNVDGVELTEVSRSEAVALLKRTSSSIVLKALEVKEYEPQEDCSSPAALDSNHNMAPPSDWSPSWVMWLELPRCLYNCKDIVLRRNTAGSLGFCIVGGYEEYNGNKPFFIKSIVEGTPAYNDGRIRCGDILLAVNGRSTSGMIHACLARLLKELKGRITLTIVSWPGTFL
partner: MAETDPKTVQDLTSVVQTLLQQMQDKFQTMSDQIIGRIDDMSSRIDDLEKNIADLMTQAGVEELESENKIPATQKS
B4: Histone-lysine N-methyltransferase SETD5 (Homo sapiens), Q9C0A6 (parent)
chain: MSIAIPLGVTTSDTSYSDMAAGSDPESVEASPAVNEKSVYSTHNYGTTQRHGCRGLPYATIIPRSDLNGLPSPVEERCGDSPNSEGETVPTWCPCGLSQDGFLLNCDKCRGMSRGKVIRLHRRKQDNISGGDSSATESWDEELSPSTVLYTATQHTPTSITLTVRRTKPKKRKKSPEKGRAAPKTKKIKNSPSEAQNLDENTTEGWENRIRLWTDQYEEAFTNQYSADVQNALEQHLHSSKEFVGKPTILDTINKTELACNNTVIGSQMQLQLGRVTRVQKHRKILRAARDLALDTLIIEYRGKVMLRQQFEVNGHFFKKPYPFVLFYSKFNGVEMCVDARTFGNDARFIRRSCTPNAEVRHMIADGMIHLCIYAVSAITKDAEVTIAFDYEYSNCNYKVDCACHKGNRNCPIQKRNPNATELPLLPPPPSLPTIGAETRRRKARRKELEMEQQNEASEENNDQQSQEVPEKVTVSSDHEEVDNPEEKPEEEKEEVIDDQENLAHSRRTREDRKVEAIMHAFENLEKRKKRRDQPLEQSNSDVEITTTTSETPVGEETKTEAPESEVSNSVSNVTIPSTPQSVGVNTRRSSQAGDIAAEKLVPKPPPAKPSRPRPKSRISRYRTSSAQRLKRQKQANAQQAELSQAALEEGGSNSLVTPTEAGSLDSSGENRPLTGSDPTVVSITGSHVNRAASKYPKTKKYLVTEWLNDKAEKQECPVECPLRITTDPTVLATTLNMLPGLIHSPLICTTPKHYIRFGSPFIPERRRRPLLPDGTFSSCKKRWIKQALEEGMTQTSSVPQETRTQHLYQSNENSSSSSICKDNADLLSPLKKWKSRYLMEQNVTKLLRPLSPVTPPPPNSGSKSPQLATPGSSHPGEEECRNGYSLMFSPVTSLTTASRCNTPLQFELCHRKDLDLAKVGYLDSNTNSCADRPSLLNSGHSDLAPHPSLGPTSETGFPSRSGDGHQTLVRNSDQAFRTEFNLMYAYSPLNAMPRADGLYRGSPLVGDRKPLHLDGGYCSPAEGFSSRYEHGLMKDLSRGSLSPGGERACEGVPSAPQNPPQRKKVSLLEYRKRKQEAKENSAGGGGDSAQSKSKSAGAGQGSSNSVSDTGAHGVQGSSARTPSSPHKKFSPSHSSMSHLEAVSPSDSRGTSSSHCRPQENISSRWMVPTSVERLREGGSIPKVLRSSVRVAQKGEPSPTWESNITEKDSDPADGEGPETLSSALSKGATVYSPSRYSYQLLQCDSPRTESQSLLQQSSSPFRGHPTQSPGYSYRTTALRPGNPPSHGSSESSLSSTSYSSPAHPVSTDSLAPFTGTPGYFSSQPHSGNSTGSNLPRRSCPSSAASPTLQGPSDSPTSDSVSQSSTGTLSSTSFPQNSRSSLPSDLRTISLPSAGQSAVYQASRVSAVSNSQHYPHRGSGGVHQYRLQPLQGSGVKTQTGLS
partner: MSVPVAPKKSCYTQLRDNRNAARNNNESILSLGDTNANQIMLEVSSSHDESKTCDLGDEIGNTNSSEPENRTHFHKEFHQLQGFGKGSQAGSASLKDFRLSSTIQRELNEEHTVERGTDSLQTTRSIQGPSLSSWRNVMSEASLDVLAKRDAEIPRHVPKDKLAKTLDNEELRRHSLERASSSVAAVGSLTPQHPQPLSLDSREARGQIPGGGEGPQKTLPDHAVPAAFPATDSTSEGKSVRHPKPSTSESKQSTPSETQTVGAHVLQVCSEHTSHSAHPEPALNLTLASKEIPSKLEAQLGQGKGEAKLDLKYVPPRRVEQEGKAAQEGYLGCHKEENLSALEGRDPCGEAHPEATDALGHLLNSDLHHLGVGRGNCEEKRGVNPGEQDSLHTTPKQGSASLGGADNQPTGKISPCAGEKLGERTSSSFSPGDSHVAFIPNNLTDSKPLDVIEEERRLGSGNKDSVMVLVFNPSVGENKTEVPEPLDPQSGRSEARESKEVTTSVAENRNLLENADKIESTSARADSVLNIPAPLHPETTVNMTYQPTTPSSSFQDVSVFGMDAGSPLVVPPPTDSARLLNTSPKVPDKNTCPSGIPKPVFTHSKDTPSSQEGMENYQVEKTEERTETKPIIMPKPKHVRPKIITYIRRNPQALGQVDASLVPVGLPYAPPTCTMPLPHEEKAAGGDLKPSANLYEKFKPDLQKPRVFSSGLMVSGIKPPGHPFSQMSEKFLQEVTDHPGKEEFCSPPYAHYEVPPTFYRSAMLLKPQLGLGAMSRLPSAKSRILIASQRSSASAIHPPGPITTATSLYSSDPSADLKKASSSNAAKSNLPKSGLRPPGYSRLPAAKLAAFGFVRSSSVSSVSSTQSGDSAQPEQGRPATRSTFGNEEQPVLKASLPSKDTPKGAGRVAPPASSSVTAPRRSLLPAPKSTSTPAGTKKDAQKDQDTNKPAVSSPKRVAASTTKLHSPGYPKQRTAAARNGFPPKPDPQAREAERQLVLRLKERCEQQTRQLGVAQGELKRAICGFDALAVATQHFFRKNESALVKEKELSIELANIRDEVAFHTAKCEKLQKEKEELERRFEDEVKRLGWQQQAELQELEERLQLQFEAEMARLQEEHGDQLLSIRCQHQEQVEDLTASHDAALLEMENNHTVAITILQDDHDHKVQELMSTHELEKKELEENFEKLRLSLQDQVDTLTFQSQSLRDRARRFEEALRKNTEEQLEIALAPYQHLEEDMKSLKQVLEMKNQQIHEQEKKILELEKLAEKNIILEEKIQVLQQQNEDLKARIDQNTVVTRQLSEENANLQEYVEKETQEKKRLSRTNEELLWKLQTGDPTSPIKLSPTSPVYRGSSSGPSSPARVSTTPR
B5: AP-1 complex subunit sigma-2 (Homo sapiens), P56377 (parent)
chain: MQFMLLFSRQGKLRLQKWYVPLSDKEKKKITRELVQTVLARKPKMCSFLEWRDLKIVYKRYASLYFCCAIEDQDNELITLEIIHRYVELLDKYFGSVCELDIIFNFEKAYFILDEFLLGGEVQETSKKNVLKAIEQADLLQEEAETPRSVLEEIGLT

Variants of: B1
Details: with pkd2_human PKD2, Q13563

Row | effect of a mutation on the interaction | Variant
1 | disrupting interaction strength | R218C

Variants of: B2
Details: with mipo1_human MIPOL1, Q8TD10

Row | Variant | effect of a mutation on the interaction
2 | D399E | with no effect

Variants of: B3
Details: with hsbp1_human HSBP1, O75506

Row | effect of a mutation on the interaction | Variant
3 | disrupting interaction strength | E295K

Variants of: B4
Details: with mtus2_human MTUS2, Q5JR59

Row | effect of a mutation on the interaction | Variant
4 | with no effect | G669R

Variants of: B5
Details: with ap1g1_human AP1G1, O43747
Sequence of ap1g1_human AP1G1, O43747 (O43747 whole entry): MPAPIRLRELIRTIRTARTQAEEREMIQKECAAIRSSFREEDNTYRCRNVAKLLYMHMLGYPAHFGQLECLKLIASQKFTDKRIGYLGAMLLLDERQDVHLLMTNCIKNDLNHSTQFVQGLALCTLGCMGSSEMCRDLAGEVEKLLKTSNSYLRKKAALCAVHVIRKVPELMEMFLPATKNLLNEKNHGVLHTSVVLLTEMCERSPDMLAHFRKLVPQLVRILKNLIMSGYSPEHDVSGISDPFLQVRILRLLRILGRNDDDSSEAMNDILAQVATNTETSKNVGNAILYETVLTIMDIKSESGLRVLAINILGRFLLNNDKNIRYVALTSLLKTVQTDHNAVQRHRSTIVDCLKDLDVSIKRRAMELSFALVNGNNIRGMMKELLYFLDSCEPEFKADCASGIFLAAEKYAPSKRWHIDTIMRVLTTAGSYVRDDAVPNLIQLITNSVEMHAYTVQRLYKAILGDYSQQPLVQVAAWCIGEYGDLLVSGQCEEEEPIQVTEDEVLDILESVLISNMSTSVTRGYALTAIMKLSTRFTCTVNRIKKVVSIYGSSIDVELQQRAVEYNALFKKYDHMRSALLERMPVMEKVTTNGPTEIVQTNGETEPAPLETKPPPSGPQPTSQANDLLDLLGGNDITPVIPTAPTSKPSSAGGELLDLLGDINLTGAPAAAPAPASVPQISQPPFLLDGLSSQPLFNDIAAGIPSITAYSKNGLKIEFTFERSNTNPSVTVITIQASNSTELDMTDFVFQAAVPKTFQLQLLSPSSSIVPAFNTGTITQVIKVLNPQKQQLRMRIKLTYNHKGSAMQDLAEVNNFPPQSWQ

Row | effect of a mutation on the interaction | Variant
5 | with no effect | R9C
